The text below walks through data of ChEMBL document CHEMBL3526122, “Identification of UDP-glucuronosyltransferases responsible for the glucuronidation of darexaban, an oral factor Xa inhibitor, in human liver and intestine” (Drug Metab Dispos, 2012).

The Km is the substrate concentration at which the rate is half of its maximum. Usually Vmax stands for the top rate of the reaction or transport when substrate is in excess.

One data set has as its system Liver microsome. The data set can be described thus: Drug level in human liver microsomes treated with darexaban at 30 uM after 10 mins by LC-MS/MS analysis in presence of UDPGA. It counts as ADME.
The nature of data set [1]: Drug level in human intestinal microsomes treated with darexaban at 30 uM after 10 mins by LC-MS/MS analysis in presence of UDPGA. Format: ADME, Intestine, Microsome.
Substrate in data set [2]: COc1ccc(C(=O)Nc2cccc(O)c2NC(=O)c2ccc(N3CCCN(C)CC3)cc2)cc1
Put plainly: Activity of human recombinant UGT1A8 expressed in baculovirus-infected insect cells assessed as enzyme-mediated glucuronidation after 10 mins in presence of UDPGA. Format: ADME.

Substrate in data set [3]: COc1ccc(C(=O)Nc2cccc(O)c2NC(=O)c2ccc(N3CCCN(C)CC3)cc2)cc1
Put plainly: Activity of human recombinant UGT1A7 expressed in baculovirus-infected insect cells assessed as enzyme-mediated glucuronidation after 10 mins by Michaelis-Menten plot analysis in presence of UDPGA. Format: ADME.

Substrate in data set [4]: COc1ccc(C(=O)Nc2cccc(O)c2NC(=O)c2ccc(N3CCCN(C)CC3)cc2)cc1
The data set can be described thus: Activity of human recombinant UGT1A10 expressed in baculovirus-infected insect cells assessed as enzyme-mediated glucuronidation after 10 mins in presence of UDPGA. It counts as ADME.

Substrate in data set [5]: COc1ccc(C(=O)Nc2cccc(O)c2NC(=O)c2ccc(N3CCCN(C)CC3)cc2)cc1
Put plainly: Activity of human recombinant UGT1A9 expressed in baculovirus-infected insect cells assessed as enzyme-mediated glucuronidation after 5 mins by Michaelis-Menten plot analysis in presence of UDPGA. Format: ADME.

Substrate in data set [6]: COc1ccc(C(=O)Nc2cccc(O)c2NC(=O)c2ccc(N3CCCN(C)CC3)cc2)cc1
The data set can be described thus: Activity of human recombinant UGT1A9 expressed in baculovirus-infected insect cells assessed as enzyme-mediated glucuronidation after 5 mins by Michaelis-Menten plot analysis in presence of UDPGA and absence of fatty acid free BSA. It counts as ADME.

Substrate in data set [7]: COc1ccc(C(=O)Nc2cccc(O)c2NC(=O)c2ccc(N3CCCN(C)CC3)cc2)cc1
The data set can be described thus: Activity of human recombinant UGT1A9 expressed in baculovirus-infected insect cells assessed as enzyme-mediated glucuronidation after 5 mins by Michaelis-Menten plot analysis in presence of UDPGA and 0.1% fatty acid free BSA. Format: ADME.

Substrate in data set [8]: COc1ccc(C(=O)Nc2cccc(O)c2NC(=O)c2ccc(N3CCCN(C)CC3)cc2)cc1
The data set can be described thus: Activity of human recombinant UGT1A9 expressed in baculovirus-infected insect cells assessed as enzyme-mediated glucuronidation after 5 mins by Michaelis-Menten plot analysis in presence of UDPGA and 0.5% fatty acid free BSA. Format: ADME.

Substrate in data set [9]: COc1ccc(C(=O)Nc2cccc(O)c2NC(=O)c2ccc(N3CCCN(C)CC3)cc2)cc1
The data set can be described thus: Activity of human recombinant UGT1A9 expressed in baculovirus-infected insect cells assessed as enzyme-mediated glucuronidation after 5 mins by Michaelis-Menten plot analysis in presence of UDPGA and 2% fatty acid free BSA. It counts as ADME.

As for `COc1ccc(C(=O)Nc2cccc(O[C@@H]3O[C@H](C(=O)O)[C@@H](O)[C@H](O)[C@H]3O)c2NC(=O)c2ccc(N3CCCN(C)CC3)cc2)cc1`, the Drug metabolism entry (in the data set with Liver microsome; in data set [1]) was “metabolite_detected” throughout.

B1: UDP-glucuronosyltransferase 1A8 (Homo sapiens) (protein)
chain: MARTGWTSPIPLCVSLLLTCGFAEAGKLLVVPMDGSHWFTMQSVVEKLILRGHEVVVVMPEVSWQLGKSLNCTVKTYSTSYTLEDLDREFMDFADAQWKAQVRSLFSLFLSSSNGFFNLFFSHCRSLFNDRKLVEYLKESSFDAVFLDPFDACGLIVAKYFSLPSVVFARGIACHYLEEGAQCPAPLSYVPRILLGFSDAMTFKERVRNHIMHLEEHLFCQYFSKNALEIASEILQTPVTAYDLYSHTSIWLLRTDFVLDYPKPVMPNMIFIGGINCHQGKPLPMEFEAYINASGEHGIVVFSLGSMVSEIPEKKAMAIADALGKIPQTVLWRYTGTRPSNLANNTILVKWLPQNDLLGHPMTRAFITHAGSHGVYESICNGVPMVMMPLFGDQMDNAKRMETKGAGVTLNVLEMTSEDLENALKAVINDKSYKENIMRLSSLHKDRPVEPLDLAVFWVEFVMRHKGAPHLRPAAHDLTWYQYHSLDVIGFLLAVVLTVAFITFKCCAYGYRKCLGKKGRVKKAHKSKTH
For B1, in data set [2], the Michaelis constant (Km) is 11.8 µM and the Vmax worked out at 0.000608 µmol/min.

B2: UDP-glucuronosyltransferase 1A7 (Homo sapiens) (protein)
chain: MARAGWTGLLPLYVCLLLTCGFAKAGKLLVVPMDGSHWFTMQSVVEKLILRGHEVVVVMPEVSWQLGRSLNCTVKTYSTSYTLEDQDREFMVFADARWTAPLRSAFSLLTSSSNGIFDLFFSNCRSLFNDRKLVEYLKESCFDAVFLDPFDACGLIVAKYFSLPSVVFARGIFCHYLEEGAQCPAPLSYVPRLLLGFSDAMTFKERVWNHIMHLEEHLFCPYFFKNVLEIASEILQTPVTAYDLYSHTSIWLLRTDFVLEYPKPVMPNMIFIGGINCHQGKPVPMEFEAYINASGEHGIVVFSLGSMVSEIPEKKAMAIADALGKIPQTVLWRYTGTRPSNLANNTILVKWLPQNDLLGHPMTRAFITHAGSHGVYESICNGVPMVMMPLFGDQMDNAKRMETKGAGVTLNVLEMTSEDLENALKAVINDKSYKENIMRLSSLHKDRPVEPLDLAVFWVEFVMRHKGAPHLRPAAHDLTWYQYHSLDVIGFLLAVVLTVAFITFKCCAYGYRKCLGKKGRVKKAHKSKTH
For B2, in data set [3], the Michaelis constant (Km) turned out to be 59.1 µM and the Vmax is 0.000725 µmol/min.

B3: UDP-glucuronosyltransferase 1A10 (Homo sapiens) (protein)
chain: MARAGWTSPVPLCVCLLLTCGFAEAGKLLVVPMDGSHWFTMQSVVEKLILRGHEVVVVMPEVSWQLERSLNCTVKTYSTSYTLEDQNREFMVFAHAQWKAQAQSIFSLLMSSSSGFLDLFFSHCRSLFNDRKLVEYLKESSFDAVFLDPFDTCGLIVAKYFSLPSVVFTRGIFCHHLEEGAQCPAPLSYVPNDLLGFSDAMTFKERVWNHIVHLEDHLFCQYLFRNALEIASEILQTPVTAYDLYSHTSIWLLRTDFVLDYPKPVMPNMIFIGGINCHQGKPLPMEFEAYINASGEHGIVVFSLGSMVSEIPEKKAMAIADALGKIPQTVLWRYTGTRPSNLANNTILVKWLPQNDLLGHPMTRAFITHAGSHGVYESICNGVPMVMMPLFGDQMDNAKRMETKGAGVTLNVLEMTSEDLENALKAVINDKSYKENIMRLSSLHKDRPVEPLDLAVFWVEFVMRHKGAPHLRPAAHDLTWYQYHSLDVIGFLLAVVLTVAFITFKCCAYGYRKCLGKKGRVKKAHKSKTH
With B3, in [4], the Km is 34.2 µM and the Vmax was determined as 0.00136 µmol/min.

B4: UDP-glucuronosyltransferase 1A9 (Homo sapiens) (protein)
chain: MACTGWTSPLPLCVCLLLTCGFAEAGKLLVVPMDGSHWFTMRSVVEKLILRGHEVVVVMPEVSWQLGRSLNCTVKTYSTSYTLEDLDREFKAFAHAQWKAQVRSIYSLLMGSYNDIFDLFFSNCRSLFKDKKLVEYLKESSFDAVFLDPFDNCGLIVAKYFSLPSVVFARGILCHYLEEGAQCPAPLSYVPRILLGFSDAMTFKERVRNHIMHLEEHLLCHRFFKNALEIASEILQTPVTEYDLYSHTSIWLLRTDFVLDYPKPVMPNMIFIGGINCHQGKPLPMEFEAYINASGEHGIVVFSLGSMVSEIPEKKAMAIADALGKIPQTVLWRYTGTRPSNLANNTILVKWLPQNDLLGHPMTRAFITHAGSHGVYESICNGVPMVMMPLFGDQMDNAKRMETKGAGVTLNVLEMTSEDLENALKAVINDKSYKENIMRLSSLHKDRPVEPLDLAVFWVEFVMRHKGAPHLRPAAHDLTWYQYHSLDVIGFLLAVVLTVAFITFKCCAYGYRKCLGKKGRVKKAHKSKTH
Regarding B4, the Km in [5] was 58.2 µM; in data set [6] it was 35.5 µM; in data set [7], 22.4 µM; in [8], 22.7 µM; in [9], 18.3 µM.
